Results on two molecules are retold here after patent US5969107.

For experiment [1], the target named is murine monoclonal anti-EGFR antibody mAb 425 (ATCC HB 9629). Put plainly: competition ELISA in solution by the method of Friguet, Scatchard plot.
Experiment [2] has as its target Anti-EGFR Ab3 sera from Balb/c and B6D2F1 mice. Put plainly: inhibition ELISA: anti-EGFR Ab3 sera preincubated with the Anti-Id, then on coated sEGFR.
Experiment [3] has as its target murine monoclonal anti-EGFR antibody mAb 425 (ATCC HB 9629). Kind of experiment: inhibition CellELISA on fixed A431 cells; reference 5A6 and 3B6.

“And” between values parts separate entries of the source, which are not always exact repeats. Identical values can stand only once.

B1: 5A6 monoclonal anti-idiotypic antibody (Ab2) (antibody, V domains shown)
VH: DVKLVESGGGLVKLGGSLKLSCAASGFTFSNYYMSWVRQTPEKRLEFVAAINSNGGSTYYPDTVKGRFTISRDNAKNTLYLQMSSLKSEDTALYYCARHRGRDSSGYVGYAIDYWGQGTSVTVSS
VL: DILLTQSPAILSVSPGERVSFSCRASQSIGTSIHWYQQRTNGSPRLLISILLSLSLGVPSRFSGSGSGTDFTLSINSVESEDIADYYCQQSNSWPYTFGGGTKLEIKR
As for B1, the Kd in experiment [1] is 1 nM. In experiment [2], the percentage of inhibition worked out at 100%.

B2: 15H8 monoclonal anti-idiotypic antibody (Ab2) (antibody, V domains shown)
VH: EVQLVESGGGLVKPGGSLKLSCAASGFTFSDYYMYWFRQHPGKRLEWVATISDAGTYTYYPDSLKGRFTISRDNAKNNLYLQMSSLKSEDTAMYFCARDGAARTSSQVYYYGMDYWGQGTSVTVSS
VL: DIVMTQSQKFMSTSVGDRVSITCKASQNVRTAVAWYQQKPGQSPKALIYLASNRHTGVPDRFTGSGSGTDFTLTISNVQSEDLADYFCLQHWNYPLTFGSGTKLEIKR
B2 had a times more effective in inhibition than 5A6 and 3B6 in experiment [3] of 10 times. In experiment [1], this molecule displayed a dissociation constant (Kd) of 0.3 nM. Moreover, the percentage of inhibition in experiment [2] is 15% and 35%.
